The values below come from the MegaScale stability set (Tsuboyama et al. 2023).

B1: EEHEE_rd3_0130 (parent)
chain: TKIIVNGKTFTAPTEEEAQKIAEKLAKKAGLTVHKKNGTFELK

In the data set the parent is B1. Kind of data set: folding stability dG (cDNA display proteolysis); higher = more stable. The following applies: PBS, room temperature.
On to TKIIVNGKTFTAPTEEEAQKIAEKLAKKAGLTSHKKNGTFELK [V33S], for which the “folding stability dG” value is -0.023 kcal/mol.

Regarding TKIIVNGKTFTAPTEEEAQKIAEKLAKKAGLTIHKKNGTFELK [V33I], the “folding stability dG” value amounted to 1.13 kcal/mol.

With TKIIVNGKTFTAPTEEEAQKIAEKLAKKAGLTTHKKNGTFELK [V33T], the “folding stability dG” value is 0.223 kcal/mol.

On to TKIIVNGKTFTAPTEEEAQKIAEKLAKKAGLTQHKKNGTFELK [V33Q], for which the “folding stability dG” value was -0.574 kcal/mol.

On to TKIIVNGKTFTAPTEEEAQKIAEKLAKKAGLTLHKKNGTFELK [V33L], for which the “folding stability dG” value was found to be 0.891 kcal/mol.

On to TKIIVNGKTFTAPTEEEAQKIAEKLAKKAGLTNHKKNGTFELK [V33N], for which the “folding stability dG” value was -0.582 kcal/mol.

Turning to TKIIVNGKTFTAPTEEEAQKIAEKLAKKAGLTKHKKNGTFELK [V33K], the “folding stability dG” value was -0.149 kcal/mol.

Consider TKIIVNGKTFTAPTEEEAQKIAEKLAKKAGLTRHKKNGTFELK [V33R], for which the “folding stability dG” value is -0.007 kcal/mol.

For TKIIVNGKTFTAPTEEEAQKIAEKLAKKAGLTMHKKNGTFELK [V33M], the “folding stability dG” value came out at 0.559 kcal/mol.

For TKIIVNGKTFTAPTEEEAQKIAEKLAKKAGLTYHKKNGTFELK [V33Y], the “folding stability dG” value stood at 0.251 kcal/mol.

For TKIIVNGKTFTAPTEEEAQKIAEKLAKKAGLTWHKKNGTFELK [V33W], the “folding stability dG” value worked out at 0.592 kcal/mol.

Regarding TKIIVNGKTFTAPTEEEAQKIAEKLAKKAGLTVHKFNGTFELK [K36F], the “folding stability dG” value came out at 0.986 kcal/mol.

Take TKIIVNGKTFTAPTEEEAQKIAEKLAKKAGLTVHKANGTFELK [K36A]: the “folding stability dG” value was determined as 0.698 kcal/mol.

For the variant TKIIVNGKTFTAPTEEEAQKIAEKLAKKAGLTVHKPNGTFELK [K36P], the “folding stability dG” value is -0.983 kcal/mol.

Regarding TKIIVNGKTFTAPTEEEAQKIAEKLAKKAGLTVHKVNGTFELK [K36V], the “folding stability dG” value amounted to 1.52 kcal/mol.

As to TKIIVNGKTFTAPTEEEAQKIAEKLAKKAGLTVHKTNGTFELK [K36T], the “folding stability dG” value amounted to 1.02 kcal/mol.

Take TKIIVNGKTFTAPTEEEAQKIAEKLAKKAGLTVHKGNGTFELK [K36G]: the “folding stability dG” value came out at 0.596 kcal/mol.

For the variant TKIIVNGKTFTAPTEEEAQKIAEKLAKKAGLTVHKSNGTFELK [K36S], the “folding stability dG” value worked out at 0.956 kcal/mol.

As to TKIIVNGKTFTAPTEEEAQKIAEKLAKKAGLTVHKCNGTFELK [K36C], the “folding stability dG” value came to 0.875 kcal/mol.

TKIIVNGKTFTAPTEEEAQKIAEKLAKKAGLTVHKINGTFELK [K36I]: the “folding stability dG” value amounted to 1.56 kcal/mol.

For TKIIVNGKTFTAPTEEEAQKIAEKLAKKAGLTVHKLNGTFELK [K36L], the “folding stability dG” value was determined as 1.01 kcal/mol.

As for TKIIVNGKTFTAPTEEEAQKIAEKLAKKAGLTVHKWNGTFELK [K36W], the “folding stability dG” value is 0.712 kcal/mol.

In the case of TKIIVNGKTFTAPTEEEAQKIAEKLAKKAGLTVHKNNGTFELK [K36N], the “folding stability dG” value came to 1.03 kcal/mol.

For TKIIVNGKTFTAPTEEEAQKIAEKLAKKAGLTVHKENGTFELK [K36E], the “folding stability dG” value was 0.75 kcal/mol.

Consider TKIIVNGKTFTAPTEEEAQKIAEKLAKKAGLTVHKRNGTFELK [K36R], for which the “folding stability dG” value is 0.78 kcal/mol.

For TKIIVNGKTFTAPTEEEAQKIAEKLAKKAGLTVHKHNGTFELK [K36H], the “folding stability dG” value was found to be 0.939 kcal/mol.

Regarding TKIIVNGKTFTAPTEEEAQKIAEKLAKKAGLTVHKDNGTFELK [K36D], the “folding stability dG” value was found to be 0.477 kcal/mol.

For the variant TKIIVNGKTFTAPTEEEAQKIAEKLAKKAGLTVHKMNGTFELK [K36M], the “folding stability dG” value was 0.882 kcal/mol.

Consider TKIIVNGKTFTAPTEEEAQKIAEKLAKKAGLTVHKQNGTFELK [K36Q], for which the “folding stability dG” value was determined as 0.8 kcal/mol.

TKIIVNGKTFTAPTEEEAQKIAEKLAKKAGLTVHKYNGTFELK [K36Y]: the “folding stability dG” value turned out to be 1.12 kcal/mol.

As for TKIIVNGKTFTAPTEEEAQKIAEKLAKKAGLTVHKKNGPFELK [T39P], the “folding stability dG” value turned out to be 0.066 kcal/mol.

For the variant TKIIVNGKTFTAPTEEEAQKIAEKLAKKAGLTVHKKNGFFELK [T39F], the “folding stability dG” value is 1.21 kcal/mol.

Regarding TKIIVNGKTFTAPTEEEAQKIAEKLAKKAGLTVHKKNGSFELK [T39S], the “folding stability dG” value was determined as 1.24 kcal/mol.

Take TKIIVNGKTFTAPTEEEAQKIAEKLAKKAGLTVHKKNGQFELK [T39Q]: the “folding stability dG” value was 1.29 kcal/mol.

For TKIIVNGKTFTAPTEEEAQKIAEKLAKKAGLTVHKKNGIFELK [T39I], the “folding stability dG” value amounted to 1.44 kcal/mol.

Consider TKIIVNGKTFTAPTEEEAQKIAEKLAKKAGLTVHKKNGNFELK [T39N], for which the “folding stability dG” value worked out at 1.12 kcal/mol.

As for TKIIVNGKTFTAPTEEEAQKIAEKLAKKAGLTVHKKNGHFELK [T39H], the “folding stability dG” value stood at 1.33 kcal/mol.

For TKIIVNGKTFTAPTEEEAQKIAEKLAKKAGLTVHKKNGDFELK [T39D], the “folding stability dG” value was found to be 0.863 kcal/mol.

In the case of TKIIVNGKTFTAPTEEEAQKIAEKLAKKAGLTVHKKNGGFELK [T39G], the “folding stability dG” value was 1.13 kcal/mol.

Take TKIIVNGKTFTAPTEEEAQKIAEKLAKKAGLTVHKKNGAFELK [T39A]: the “folding stability dG” value is 1.47 kcal/mol.

TKIIVNGKTFTAPTEEEAQKIAEKLAKKAGLTVHKKNGCFELK [T39C]: the “folding stability dG” value amounted to 1.17 kcal/mol.

Regarding TKIIVNGKTFTAPTEEEAQKIAEKLAKKAGLTVHKKNGLFELK [T39L], the “folding stability dG” value came to 0.663 kcal/mol.

Consider TKIIVNGKTFTAPTEEEAQKIAEKLAKKAGLTVHKKNGMFELK [T39M], for which the “folding stability dG” value is 1.14 kcal/mol.

For TKIIVNGKTFTAPTEEEAQKIAEKLAKKAGLTVHKKNGKFELK [T39K], the “folding stability dG” value was found to be 0.554 kcal/mol.

TKIIVNGKTFTAPTEEEAQKIAEKLAKKAGLTVHKKNGEFELK [T39E]: the “folding stability dG” value turned out to be 0.778 kcal/mol.

Take TKIIVNGKTFTAPTEEEAQKIAEKLAKKAGLTVHKKNGRFELK [T39R]: the “folding stability dG” value was 0.935 kcal/mol.

TKIIVNGKTFTAPTEEEAQKIAEKLAKKAGLTVHKKNRTFELK [G38R]: the “folding stability dG” value was -0.474 kcal/mol.

Turning to TKIIVNGKTFTAPTEEEAQKIAEKLAKKAGLTVHKKNKTFELK [G38K], the “folding stability dG” value was -0.088 kcal/mol.

On to TKIIVNGKTFTAPTEEEAQKIAEKLAKKAGLTVHKKNLTFELK [G38L], for which the “folding stability dG” value was -0.199 kcal/mol.

Regarding TKIIVNGKTFTAPTEEEAQKIAEKLAKKAGLTVHKKNMTFELK [G38M], the “folding stability dG” value was -0.52 kcal/mol.

For TKIIVNGKTFTAPTEEEAQKIAEKLAKKAGLTVHKKNPTFELK [G38P], the “folding stability dG” value turned out to be 0.071 kcal/mol.

For TKIIVNGKTFTAPTEEEAQKIAEKLAKKAGLTVHKKNSTFELK [G38S], the “folding stability dG” value is -0.804 kcal/mol.

For TKIIVNGKTFTAPTEEEAQKIAEKLAKKAGLTVHKKNCTFELK [G38C], the “folding stability dG” value came to 0.297 kcal/mol.

TKIIVNGKTFTAPTEEEAQKIAEKLAKKAGLTVHKKNNTFELK [G38N]: the “folding stability dG” value amounted to 0.509 kcal/mol.

Regarding TKIIVNGKTFTAPTEEEAQKIAEKLAKKAGLTVHKKNYTFELK [G38Y], the “folding stability dG” value turned out to be 0.009 kcal/mol.

Take TKIIVNGKTFTAPTEEEAQKIAEKLAKKAGLTVHKKNETFELK [G38E]: the “folding stability dG” value turned out to be 0.033 kcal/mol.

As to TKIIVNGKTFTAPTEEEAQKIAEKLAKKAGLTVHKKNWTFELK [G38W], the “folding stability dG” value was -0.047 kcal/mol.

On to TKIIVNGKTFTAPTEEEAQKIAEKLAKKAGLTVHKKNHTFELK [G38H], for which the “folding stability dG” value was -0.107 kcal/mol.

Regarding TKIIVNGKTFTAPTEEEAQKIAEKLAKKAGLTVHKKNFTFELK [G38F], the “folding stability dG” value is 0.05 kcal/mol.
